Assays:
[1] = molecular target: ヒトFcγRIIIaを固定化した担体(分離剤)を詰めたカラム(FcR9_Fカラム、WO2018/150973号の実施例5に記載) (human); assay: FcγRIIIa affinity chromatography (FcR9_F column), area share of the strongly binding peak 3; antibody from bioreactor batch culture in BalanCD CHO Growth A without Mn, day 9
[2] = molecular target: ヒトFcγRIIIaを固定化した担体(分離剤)を詰めたカラム(FcR9_Fカラム、WO2018/150973号の実施例5に記載) (human); assay: FcγRIIIa affinity chromatography (FcR9_F column), area share of the strongly binding peak 3; antibody from bioreactor batch culture in EX-CELL Advanced CHO Fed-batch Medium with 1 µM Mn, day 10
[3] = molecular target: ヒトFcγRIIIaを固定化した担体(分離剤)を詰めたカラム(FcR9_Fカラム、WO2018/150973号の実施例5に記載) (human); assay: FcγRIIIa affinity chromatography (FcR9_F column), area share of the strongly binding peak 3; antibody from bioreactor batch culture in EX-CELL Advanced CHO Fed-batch Medium with 5 µM Mn, day 10
[4] = molecular target: ヒトFcγRIIIaを固定化した担体(分離剤)を詰めたカラム(FcR9_Fカラム、WO2018/150973号の実施例5に記載) (human); assay: FcγRIIIa affinity chromatography (FcR9_F column), area share of the strongly binding peak 3; antibody from bioreactor batch culture in BalanCD CHO Growth A with 5 µM Mn, day 10
[5] = molecular target: ヒトFcγRIIIaを固定化した担体(分離剤)を詰めたカラム(FcR9_Fカラム、WO2018/150973号の実施例5に記載) (human); assay: FcγRIIIa affinity chromatography (FcR9_F column), area share of the strongly binding peak 3; antibody from bioreactor batch culture in EX-CELL Advanced CHO Fed-batch Medium without Mn, day 10
[6] = molecular target: ヒトFcγRIIIaを固定化した担体(分離剤)を詰めたカラム(FcR9_Fカラム、WO2018/150973号の実施例5に記載) (human); assay: FcγRIIIa affinity chromatography (FcR9_F column), area share of the strongly binding peak 3; antibody from bioreactor batch culture in EX-CELL Advanced CHO Fed-batch Medium with 10 µM Mn, day 10

B1: 抗インターロイキン6レセプター(IL−6R)抗体 (antibody, V domains shown)
VH: QVQLQESGPGLVRPSQTLSLTCTVSGYSITSDHAWSWVRQPPGRGLEWIGYISYSGITTYNPSLKSRVTMLRDTSKNQFSLRLSSVTAADTAVYYCARSLARTTAMDYWGQGSLVTVSS
VL: DIQMTQSPSSLSASVGDRVTITCRASQDISSYLNWYQQKPGKAPKLLIYYTSRLHSGVPSRFSGSGSGTDFTFTISSLQPEDIATYYCQQGNTLPYTFGQGTKVEIK
- FcR9_Fカラムとの結合力が強いピーク(ピーク3)の割合 [1]: 27.9%
- FcR9_Fカラムとの結合力が強いピーク(ピーク3)の割合 [2]: 36.5%
- FcR9_Fカラムとの結合力が強いピーク(ピーク3)の割合 [3]: 38.4%
- FcR9_Fカラムとの結合力が強いピーク(ピーク3)の割合 [4]: 34.7%
- FcR9_Fカラムとの結合力が強いピーク(ピーク3)の割合 [5]: 35.9%
- FcR9_Fカラムとの結合力が強いピーク(ピーク3)の割合 [6]: 41%

Reference: patent JP2020103280A
